Assay results from US20030092616A1, “STAT6 activation gene” (priority 2001, published 2003).

test system: STAT6; experiment: Screening of full-length cDNA clones for promotion of STAT6 activation (luciferase reporter N4×8-luc); type: cell-based; details: NIH3T3 cells cotransfected with N4×8-luc reporter and cDNA plasmid; 48 h culture, then mouse IL-4 0.5 ng/ml for 6 h
Description: As a preferable method, NIH3T3 cells are inoculated on 10% FBS (Fetal Bovine Serum)-containing IMDM medium in a 96-well cell culture plate to a final cell density of 1×10^4 cells/well, and cultured for 24 hours at 37° C., in the presence of 5% CO2. Then, the luciferase reporter plasmid N4×8-luc which has a STAT6 response sequence, and the expression vector are cotransfected into the cells in a well using FuGENE 6 (Roche). After 48 hours of culture at 37° C., in the presence of 5% CO2 mouse IL-4 (Immuno Biological Laboratories Co., Ltd.) is added to a final concentration of 0.5 ng/ml. After culturing for further 6 hours, promoting activity for STAT6 activation is then measured by measuring luciferase activity using a long term luciferase assay system, Picagene LT2.0 (Toyo Ink Mfg). For example, luciferase activity can be measured using PerkinElmer's Wallac ARVOTMST 1420 MULTILABEL COUNTER. The method for gene introduction by FuGENE6, and measurement of luciferase activity by Picagene LT2.0 can be performed respectively according to the attached protocols. In a method of gene introduction with a 96-well plate using FuGENE6, the amount of FuGENE6 per 1 well is suitably 0.3 to 0.5 μl, preferably 0.3 μl; the amount of N4×8-luc reporter plasmid is suitably 50 to 100 ng, preferably 100 ng; and the amount of expression vector is suitably 50 to 100 ng, preferably 100 ng. An ability (action) to promote STAT6 activation refers to an ability to increase the reporter activity (luciferase activity) relative to the control experiment (for cells into which the reporter gene and a null vector were introduced). Increase in reporter activity is preferably by a factor of 1.5 or more, more preferably by a factor of 3 or more, and still more preferably by a factor of 6 or more.
NIH3T3 cells (purchased from Dainippon Pharmaceutical) were grown to 1×10^4 cells/well in a 96 well plate for cell culture for 24 hours at 37° C. (in the presence of 5% CO2) using 10% FBS containing IMDM medium. Then, 100 ng of luciferase reporter plasmid N4×8-luc having a STAT6 response sequence and 2 μl of the full-length cDNA prepared in above Example 1.(3) were cotransfected into the cells in a well using FuGENE 6 (purchased from Roche) according to the manufacturer's protocol. The luciferase reporter plasmid N4×8-luc having the STAT6 response sequence was constructed as follows. […] 157, 2058-2065 (1996)], oligonucleotides having the following sequences were synthesized:
The synthesized oligonucleotides were dissolved in sterile water to be 1μg/μl, respectively, mixed in 10 μl lots, and adjusted the volume to 32 μl with sterile water. The solution was heated for 5 min at 90° C., and gradually cooled down to room temperature to prepare a double-stranded oligonucleotide solution. The solution was reacted with T4 polynucleotide kinase (Takara Shuzo) according to the attached manual, then the reaction product was purified in a usual manner. Separately, SV40 promoter region of pGL3-Promoter vector (Promega) was replaced by the HSV thymidine kinase promoter sequence (from −50 to +10) with Hind III site and BglII site to construct a vector tk-luc. The aforesaid double-stranded oligonucleotide fragments were inserted into the XhoI site of this tk-luc vector using T4 DNA ligase (GIBCO/BRL). The obtained clones were sequenced according to a usual method, and clones in which plural oligonucleotide fragments were inserted were selected. […] The four-interlinked DNA fragments were excised from the N4×4-luc with a XhoI and a BglII site and purified to be inserted into a BamHI and a XhoI site of pBluescript II KS+ (Stratagene). The four-interlinked DNA fragments were excised from this plasmid with KpnI and SpeI and inserted into a KpnI and a NheI site of N4×4-luc plasmid to finally obtain N4×8-luc.

| Molecule | Activity = (luciferase activity of the gene of each SEQ ID NO:)/(luciferase activity of pME18S-FL3) |
| --- | --- |
| 241 (nucleic acid, listed as Homo sapiens, CDS (149)..(835)) GGGGTGTCCAGTTGGTTGCCGCGGCAGTCTCTCCGAGCAGCGCATTTGTCTTCTAGGCTGCTTGGTTCGTGCCTCCGAGAAAGGGGTCTCCTGCTGCCAGCTAAGTGTGGGAGAACTTGTGCACGTATCTCCCCTCCGAATCCCAACGATGGGTAACGCCAGCTTTGGCTCCAAGGAACAGAAGCTGCTGAAGCGGTTGCGGCTTCTGCCCGCCCTGCTTATCCTCCGCGCCTTCAAGCCCCACAGGAAGATCAGAGATTACCGCGTCGTGGTAGTCGGCACCGCTGGTGTGGGGAAAAGTACGCTGCTGCACAAGTGGGCGAGCGGCAACTTCCGTCATGAGTACCTGCCGACCATTGAAAATACCTACTGCCAGTTGCTGGGCTGCAGCCACGGTGTGCTTTCCCTGCACATCACCGACAGCAAGAGTGGCGACGGCAACCGCGCTCTGCAGCGCCACGTTATAGCCCGGGGCCACGCCTTCGTCCTGGTCTACTCAGTCACCAAGAAGGAAACCCTGGAAGAGCTGAAGGCCTTCTATGAGCTGATCTGCAAGATCAAAGGTAACAACCTGCATAAGTTCCCCATCGTGCTGGTGGGCAATAAAAGTGATGACACCCACCGGGAGGTGGCCCTGAATGATGGTGCCACCTGTGCGATGGAGTGGAATTGCGCCTTCATGGAGATTTCAGCCAAGACCGATGTGAATGTGCAGGAGCTGTTCCACATGCTGCTGAATTACAAGAAAAAGCCCACCACCGGCCTCCAGGAGCCCGAGAAGAAATCCCAGATGCCCAACACCACTGAGAAGCTGCTTGACAAGTGCATAATCATGTGAGCCCTGGGCCTTAAGAGCCAGCTCTTCCTATCCTGTAGCGTGTAGAAAACGTGGACTCATTTCACTATGTTACATGTACATGGTTGATTTTGTGCTGTTGTTTGGACTGTAACATCCATGTTGTCAATACGTATACCTTGTAAGTGGATAACTTTTCTTTTTCCCAGGCCAGAGAATTCAAATTGTTAAAACATTGGCATTTGAAGAGGAGAACAAAATGTAGCATGATGTATTTAAAGTAAGGCCTTTAGTAATGAATGTAATGAGAGAAAATGTTTTGAAAAGAACAAAACATCAAAATGAATAGAAAGAAAAATTGGAAGGCGTCCTTTTGGTAACCCGATTATTGTGTATTACCTTTAAATATTTCACATCCTGTAAGTGCTTAATCATATCTTTTAATTGTGTATTTAAGAAAAGTGTTTTCACAACAAAAGCTTTTGATAAATTGCTGCGTGACATATACTAAATAAAAAAATGAATATGTTGATCATTAGGGGTGTGGGAGCAGAGAAAATTGTGAAAGTGACTCTCACTAAAGATGTTAGTAGTTTCTCATGTCATTTAAAAATGTTTGAGTATTCTGCATAGCAGTTTGTAAAAGTGTAACAGCTTATTGACTTAATAAAGCTTTTCCTGCATGC | 54.3 |
| 261 (nucleic acid, listed as Homo sapiens, CDS (12)..(1034)) AGTGCGCGAAGATGCGAAAGGTGGTTTTGATCACCGGGGCTAGCAGTGGCATTGGCCTGGCCCTCTGCAAGCGGCTGCTGGCGGAAGATGATGAGCTTCATCTGTGTTTGGCGTGCAGGAACATGAGCAAGGCAGAAGCTGTCTGTGCTGCTCTGCTGGCCTCTCACCCCACTGCTGAGGTCACCATTGTCCAGGTGGATGTCAGCAACCTGCAGTCGGTCTTCCGGGCCTCCAAGGAACTTAAGCAAAGGTTTCAGAGATTAGACTGTATATATCTAAATGCTGGGATCATGCCTAATCCACAACTAAATATCAAAGCACTTTTCTTTGGCCTCTTTTCAAGAAAAGTGATTCATATGTTCTCCACAGCTGAAGGCCTGCTGACCCAGGGTGATAAGATCACTGCTGATGGACTTCAGGAGGTGTTTGAGACCAATGTCTTTGGCCATTTTATCCTGATTCGGGAACTGGAGCCTCTCCTCTGTCACAGTGACAATCCATCTCAGCTCATCTGGACATCATCTCGCAGTGCAAGGAAATCTAATTTCAGCCTCGAGGACTTCCAGCACAGCAAAGGCAAGGAACCCTACAGCTCTTCCAAATATGCCACTGACCTTTTGAGTGTGGCTTTGAACAGGAACTTCAACCAGCAGGGTCTCTATTCCAATGTGGCCTGTCCAGGTACAGCATTGACCAATTTGACATATGGAATTCTGCCTCCGTTTATATGGACGCTGTTGATGCCGGCAATATTGCTACTTCGCTTTTTTGCAAATGCATTCACTTTGACACCATATAATGGAACAGAAGCTCTGGTATGGCTTTTCCACCAAAAGCCTGAATCTCTCAATCCTCTGATCAAATATCTGAGTGCCACCACTGGCTTTGGAAGAAATTATATTATGACCCAGAAGATGGACCTAGATGAAGACACTGCTGAAAAATTTTATCAAAAGTTACTGGAACTGGAAAAGCACATTAGGGTCACTATTCAAAAAACAGATAATCAGGCCAGGCTCAGTGGCTCATGCCTATAATTCCAGCACTTTGGGAGGCCAAGGCAGAAGGATCACTTGAGACCAGGAGTTCAAGACCAGCCTGAGAAACATAGTGAGCCCTTGTCTCTACAAAAAGAAATAAAAATAATAGCTGGGTGTGGTGGCATGCGCATGTAGTCCCAGCTACTCAGAAGGATGAGGTGGGAGGATCTCTTGAGGCTGGGAGGCAGAGGTTGCAGTGAGCTGAGATTGTGCCACTGCACTCCAGCCTGGGTGACAGCGAGACCCTGTCTCAAAATATGTATATATTTAATATATATATAAAACCAGAGCTGACAATGACACTCTGGAACATTGCATACCTTCTGTACATTCTGGGGTACATGGATTTCTACTGAGTTGGATAATATGCATTTGTAATAAACTATGAACTATG | 14.7 |
| 56 (nucleic acid, listed as Homo sapiens, CDS (82)..(645)) AGAGCCGCCGCCCAGGAAGGGGATGCGGAAACCCCTGGCTCGGTGGAGCGGAGAGGCAGGCGGGCAGGAGCCGAGGACGGCATGTCCCAGGCCCCGGGAGCACAGCCGAGCCCACCCACCGTGTACCACGAACGGCAGCGCCTGGAGCTGTGTGCTGTCCACGCCCTCAACAACGTTCTGCAGCAGCAGCTCTTTAGCCAGGAGGCTGCCGATGAGATCTGCAAGAGGTTGGCCCCAGACTCCCGGCTGAACCCTCATCGCAGCCTCCTGGGCACCGGCAACTATGATGTCAATGTGATCATGGCCGCTCTGCAGGGGCTGGGCCTGGCCGCCGTGTGGTGGGACAGGAGGAGGCCCCTGTCCCAGCTGGCCCTGCCCCAGGTACTGGGGCTGATCCTGAACCTGCCCTCGCCCGTGTCGCTGGGGCTGCTGTCACTGCCGCTGCGCCGGCGGCACTGGGTGGCCCTGCGCCAGGTGGACGGTGTCTACTACAACCTGGACTCCAAGCTGCGGGCGCCCGAGGCCCTGGGGGATGAGGACGGAGTCAGGGCCTTCCTGGCGGCTGCGCTGGCCCAGGGCCTGTGCGAGGTGCTGCTGGTAGTGACCAAGGAGGTGGAGGAGAAGGGCAGCTGGCTGCGGACAGACTGACCATGGCTGACCATCGGCGCCCACAGCGCAGTCCCTGCGCATCCCCCTCCGGCTGCGCACACTGCATGCCTGGGAAAGGCCAGCACTTCATGGACCCTGGGGAGGCCCCGCCCCCTCCCCACACCCCTGCTCCCCACTGCCGCTGCTGCCTCAATAAATCTGCTGATTTGCTGCC | 4.7 |
